Assay results: patent US7208311B2, “Catalytic domain of ADAM33 and methods of use thereof” (Schering Corporation, priority 2002, dated 2007)
Each block holds one molecule with its values, some of them ahead of it.

How the values were obtained:
ADAM33 [1] = target: T1, ADAM33 (Homo sapiens, UniProt Q9BZ11); test: HPLC inhibition assay, ADAM33cat with KL-1 peptide substrate; assay type: biochemical; conditions: at 2 µM
T1 construct: made in house; host or cells: Drosophila melanogaster S2 cells
T1 sequence (Q9BZ11 204-409 limits assumed): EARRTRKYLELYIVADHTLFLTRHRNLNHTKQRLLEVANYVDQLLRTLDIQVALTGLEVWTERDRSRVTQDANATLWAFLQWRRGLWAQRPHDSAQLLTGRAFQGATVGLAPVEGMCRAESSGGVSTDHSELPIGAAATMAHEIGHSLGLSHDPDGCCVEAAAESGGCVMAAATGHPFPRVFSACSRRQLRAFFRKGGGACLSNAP
Procedure: The inhibition dissociation constants (Ki) for inhibitors were determined as follows: an HPLC assay was performed in the presence or absence of inhibitors for 2 h at RT using ADAM33cat (80 nM) and KL-1 peptide substrate (100 μM). For testing tissue inhibitor of metalloproteinases (TIMPs), ADAM33 and human TIMPs were pre-incubated for 1 h at RT. […] Initial velocities were calculated by dividing cleaved product over reaction time. The initial velocities were plotted as a function of inhibitor concentration. For tight binding inhibitors (IK682, TIMP-3), the apparent inhibitor dissociation constants (Ki app values) were calculated by fitting the curve to the following modified Morrison's equation: vi=vo{[(Eo−Io−Ki^app)^2+4 Ki^appEo]^1/2+(Eo−IoKI^app)}/2Eo where Ki^app=Ki(1+S/Km), vo is the uninhibited initial velocity, vi is the initial velocity in the presence of inhibitor at any given inhibitor concentration Io, and Eo is initial enzyme concentration. When the substrate concentration S<<Km, Ki^app is approximately equal to Ki.

human ADAM17 = human ADAM17 (Homo sapiens, UniProt P78536); test: Inhibition of human ADAM17 by human TIMPs, fluorogenic pro-TNF-alpha substrate; assay type: biochemical; conditions: ADAM17 1 nM, substrate 25 μM
Chain of human ADAM17 (P78536 215-824): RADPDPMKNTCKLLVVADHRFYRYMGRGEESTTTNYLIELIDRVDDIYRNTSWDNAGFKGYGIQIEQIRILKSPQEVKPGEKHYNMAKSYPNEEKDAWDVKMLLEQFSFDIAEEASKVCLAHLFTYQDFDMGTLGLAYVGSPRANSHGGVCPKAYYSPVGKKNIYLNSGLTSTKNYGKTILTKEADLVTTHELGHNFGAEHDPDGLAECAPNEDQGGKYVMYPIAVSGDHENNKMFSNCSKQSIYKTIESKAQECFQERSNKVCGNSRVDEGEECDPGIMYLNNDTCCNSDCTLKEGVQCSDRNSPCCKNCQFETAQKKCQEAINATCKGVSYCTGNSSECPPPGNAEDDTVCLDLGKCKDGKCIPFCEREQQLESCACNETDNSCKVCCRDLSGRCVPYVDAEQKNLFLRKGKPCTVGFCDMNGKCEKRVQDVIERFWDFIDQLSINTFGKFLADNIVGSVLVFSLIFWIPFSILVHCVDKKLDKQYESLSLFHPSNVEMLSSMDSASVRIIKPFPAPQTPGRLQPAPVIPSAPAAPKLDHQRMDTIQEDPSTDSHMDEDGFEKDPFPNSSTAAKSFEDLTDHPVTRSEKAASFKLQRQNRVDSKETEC
Procedure: Inhibition of human ADAM17 by human TIMPs was determined as follows: ADAM17 (1 nM) was pre-incubated with serial dilutions of TIMP-1 (0–4 μM), TIMP-2 (0–1 μM), TIMP-3 (0–0.2 μM), or TIMP-4 (0–4 μM), in assay buffer (25 mM HEPES, pH7.5, 5 mM CaCl2, 0.1 mM ZnCl2) for 1 h at RT, followed by addition of the fluorogenic pro-TNF-alpha substrate (25 μM), K(mca)SPLAQAVRSSSRK(dnp) (SEQ ID NO: 46). The reaction velocities were measured using the GEMINI fluorescence reader at 320/380 nm for 1 h and inhibition dissociation constants were calculated by fitting the data to Morrison equation (TIMP-2 and TIMP-3) or Michaelis-Menten equation (TIMP-1 and TIMP-4) as described above.

ADAM33 [2] = test: MCF 12-mer peptide proteolysis assay (HPLC); assay type: biochemical, human; conditions: MCF peptide substrate
Procedure: A 12-mer peptide (i.e. Ac-LPPVAASSLNRD-NH2; SEQ ID NO: 48), derived from human mast-cell growth factor (accession number NP-038626) was synthesized as a substrate for ADAM33. Reactions were initiated by addition of 200 nM enzyme to appropriate amounts of substrate in assay buffer (25 mM HEPES, pH 7.5, 0.5 M NaCl, 0.1% n-octyl-β-D-glucoside), incubated at 22° C. for 2 h and subsequently quenched with 1% TFA. When inhibitors were evaluated, the enzyme and inhibitors were preincubated at 22° C. for 30 min prior to initiation of the assays. Substrate and products were separated by HPLC using a C-8 reverse phase column (Zobrax 3.5 μm, 4.6 mmD/5 cmL, Agilent, Palo Alto, Calif., 0.1% TFA acetonitrile/H2O). Elution was monitored at 214 nm, and peaks identified by mass spectroscopy. Initial rates of proteolysis were determined using reactions in which less than 10% of the substrate was consumed. kcat/Km values were calculated assuming the enzymes were 100% active.
Production of ADAM33 and mutants thereof were produced essentially as described in Example 1. Proteolytic assays and methods for determining catalytic rates are essentially as described in Examples 2 and 3.

B1: pro-CAT single chain zymogen form: single chain zymogen form of ADAM33 (R203T/R207S; SEQ ID NO:54) (protein)
chain: LQGHIPGQPVTPHWVLDGQPWRTVSLEEPVSKPDMGLVALEAEGQELLLELEKNHRLLAPGYIETHYGPDGQPVVLAPNHTDHCHYQGRVRGFPDSWVVLCTCSGMSGLITLSRNASYYLRPWPPRGSKDFSTHEIFRMEQLLTWKGTCGHRDPGNKAGMTSLPGGPQSRGRTEARSTRKYLELYIVADHTLFLTRHRNLNHTKQRLLEVANYVDQLLRTLDIQVALTGLEVWTERDRSRVTQDANATLWAFLQWRRGLWAQRPHDSAQLLTGRAFQGATVGLAPVEGMCRAESSGGVSTDHSELPIGAAATMAHEIGHSLGLSHDPDGCCVEAAAESGGCVMAAATGHPFPRVFSACSRRQLRAFFRKGGGACLSNAP
modifications: homo sapiens
catalytic efficiency relative to CAT domain (ADAM33 [2]): no significant difference

B3: TIMP4: human tissue inhibitor of metalloproteinases 4, endogenous inhibitor of MMPs and ADAMs (protein)
chain: CSCAPAHPQQHICHSALVIRAKISSEKVVPASADPADTEKMLRYEIKQIKMFKGFEKVKDVQYIYTPFDSSLCGVKLEANSQKQYLLTGQVLSDGKVFIHLCNYIEPWEDLSLVQRESLNHHYHLNCGCQITTCYTVPCTISAPNECLWTDWLLERKLYGYQAQHYVCMKHVDGTCSWYRGHLPLRKEFVDIVQP
inhibition of human ADAM17 activity (human ADAM17): inhibited

Further lines, results first:

inhibition of ADAM33 activity (ADAM33 [1]): no inhibition
inhibition of human ADAM17 activity (human ADAM17): weakly inhibited
Molecule: TIMP-1: human tissue inhibitor of metalloproteinases 1, endogenous inhibitor of MMPs and ADAMs

inhibition of human ADAM17 activity (human ADAM17): inhibited
B2: TIMP-3: human tissue inhibitor of metalloproteinases 3, endogenous inhibitor of MMPs and ADAMs (protein)
chain: CTCSPSHPQDAFCNSDIVIRAKVVGKKLVKEGPFGTLVYTIKQMKMYRGFTKMPHVQYIHTEASESLCGLKLEVNKYQYLLTGRVYDGKMYTGLCNFVERWDQLTLSQRKGLNYRYHLGCNCKIKSCYYLPCFVTSKNECLWTDMLSNFGYPGYQSKHYACIRQKGGYCSWYRGWAPPDKSIINATDP
